Consider 1 substance from publication PMC10003451, “Phosphorylated Peptide Derived from the Myosin Phosphatase Target Subunit Is a Novel Inhibitor of Protein Phosphatase-1” (International Journal of Molecular Sciences, 2023).

Assay [1] relates to native catalytic subunit of PP1 (PP1c). The experiment in a line: Phosphatase assay of native PP1c with ^32P-MLC20 substrate. In kind it is biochemical, rabbit skeletal muscle. The conditions noted are these: PP1c 1.5–2.2 nM, 1 µM ^32P-MLC20, pH 7.4, 30 °C; n = 4. The procedure:
Figure 2 Effects of a phosphorylated peptide from MYPT1 on the activity of PP1c, PP2Ac and myosin phosphatase holoenzyme (Flag-MYPT1-PP1c). (A): The native catalytic subunit of PP1 (PP1c; ▼,●) or PP2A (PP2Ac; ∆) purified from rabbit skeletal muscle or Flag-MYPT1-PP1c overexpressed and isolated from tsa201 cells (○) was assayed in the presence of dephosphorylated (▼) or phosphorylated (○,●,∆) MYPT1 peptide of R^690QSRRS(pT696)QGVTL^701 (P-Thr696-MYPT1^690−701) with ^32P-MLC20 substrate as described in Section 4. Values are mean ± SD (n = 4). Phosphatase activity in the absence of peptide was taken 100%. (B): Interaction of recombinant PP1cα with the phosphorylated peptide assessed by microscale thermophoresis (MST) or (C): with isotherm titration calorimetry (ITC) as described in Section 4. […] Only the axis text 'MYPT1^690-701 peptides' names the substance, and no target is printed. / Panel C: the picture prints no substance label for the ITC parameters.
The ^32Pi released from ^32P-MLC20 substrate were determined as previously described. The assay (80 µL) to determine the half-life of dephoshorylation for ^32P-MLC20 (10 µM) in the presence of various concentration of P-Thr696-MYPT1^690−701 (10–500 µM) was carried out in a similar fashion except that 5 µL aliquots were removed from the reaction mixture at different intervals for radioactivity measurements.

Assay [2] deals with T1, recombinant PP1cα (rPP1cα) (Homo sapiens, UniProt P62136).
T1 construct: made in house; host or cells: E. coli
Put plainly: Microscale thermophoresis (MST). In kind it is binding. The note with it: rPP1cα 2 µM, peptide 9.16 nM-300 µM, 25 mM Tris/HCl, 100 mM NaCl, 1 mM DTT, 0.1% PEG 8000, pH 8.0; intrinsic fluorescence, Monolith NT.LabelFree. The procedure:
The interaction of P-Thr696-MYPT1^690−701 and the recombinant PP1cα (rPP1cα) was studied by Monolith^TM NT.LabelFree (MST power: 40%; LED Power: 10%) instrument (NanoTemper Technologies GmbH, Munich, Germany). A 16-point two-fold P-Thr696-MYPT1^690−701 peptide dilution series was generated (9.16 nM-300 µM) in 25 mM Tris/HCl, 100 mM NaCl, 1 mM DTT, 0.1% PEG 8000, pH 8.0 and mixed with rPP1cα (2 µM). The mixtures were loaded into NT.LabelFree standard capillaries. The capillaries on the capillary tray were scanned and intrinsic fluorescence change of rPP1cα upon ligand binding was recorded. The data were analyzed by MO.Affinity Analysis v2.3 software.
(MST reads how a fluorescent partner responds to local heating, with and without ligand.)

Assay [3] has as its target T1, recombinant PP1cα (rPP1cα). Put plainly: Isothermal titration calorimetry (ITC). In kind it is binding. The conditions noted are these: rPP1cα 0.5–2 µM, peptide 5–20 µM, 25 mM Tris/HCl (pH 8.0), 150 mM NaCl, 1 mM TCEP, 25 °C; one set of site model. The method, then:
Isothermal titration calorimetry (ITC) experiments were carried out with MicroCal ITC200 instrument. rPP1cα was dialyzed in 25 mM Tris/HCl (pH 8.0), 150 mM NaCl, 1 mM TCEP (assay buffer) for 3 h first, then 16 h with a fresh batch of solution. Prior to measurements, rPP1cα (0.5–2 µM) was transferred into the sample cell of the calorimeter while the reference cell was filled with the assay buffer. P-Thr696-MYPT1^690−701 (5–20 µM) in the assay was applied to the syringe and 2 µL aliquot (19 times) was injected into the cell at a stirring rate of 300 rpm at 25 °C. The reference power was 5 µcal/s. The titration data were analyzed with MicroCal ITC-Origin software using one set of site model to obtain binding parameters of protein–ligand interaction.

T1 sequence (P62136 whole entry): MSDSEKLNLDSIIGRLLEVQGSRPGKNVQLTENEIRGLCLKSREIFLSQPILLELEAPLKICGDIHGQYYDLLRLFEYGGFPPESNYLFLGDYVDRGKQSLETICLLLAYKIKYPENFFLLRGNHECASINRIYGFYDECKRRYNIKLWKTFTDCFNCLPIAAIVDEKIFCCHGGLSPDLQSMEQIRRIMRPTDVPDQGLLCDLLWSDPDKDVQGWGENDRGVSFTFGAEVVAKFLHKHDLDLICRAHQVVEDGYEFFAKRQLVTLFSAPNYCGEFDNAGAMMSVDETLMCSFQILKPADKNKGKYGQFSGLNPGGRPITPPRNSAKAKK

For “MYPT1^690−701: synthesized MYPT1 peptide, non-phosphorylated (RQSRRSTQGVTL; UniProt O14974 690-701, looked up, fragment)”, the “effect on PP1c activity” value in assay [1] is “without effect”. In addition, in assay [2], the “KD by MST” value was “no MST or ITC signals suitable for quantitative evaluation were obtained”. Further, the “KD by ITC” value in assay [3] is given as “no MST or ITC signals suitable for quantitative evaluation were obtained”.
